Laboratory results taken from paper PMC9706529, “Identification of a S-(2-succino)cysteine breakdown pathway that uses a novel S-(2-succino) lyase” (The Journal of Biological Chemistry, 2022).

Tests used:
E. italicus 2SL (Ei) = target: T1, E. italicus 2SL (Ei) (Enterococcus italicus, UniProt E6LDH5); assay: HPLC, […] nm, 2SNAC synthesis; format: biochemical; details: 50 mM Tris-HCl pH 8.0, 21 °C, 4.0 mM NAC; synthesis direction; read-out: Kinetic parameter / Km
T1 construct: gene purB; full-length, N-terminal hexahistidine tag (pET28b), expressed in E. coli BL21-(DE3)-RIPL, Ni-NTA purified; tag removal not mentioned
T1 sequence (E6LDH5 1-455): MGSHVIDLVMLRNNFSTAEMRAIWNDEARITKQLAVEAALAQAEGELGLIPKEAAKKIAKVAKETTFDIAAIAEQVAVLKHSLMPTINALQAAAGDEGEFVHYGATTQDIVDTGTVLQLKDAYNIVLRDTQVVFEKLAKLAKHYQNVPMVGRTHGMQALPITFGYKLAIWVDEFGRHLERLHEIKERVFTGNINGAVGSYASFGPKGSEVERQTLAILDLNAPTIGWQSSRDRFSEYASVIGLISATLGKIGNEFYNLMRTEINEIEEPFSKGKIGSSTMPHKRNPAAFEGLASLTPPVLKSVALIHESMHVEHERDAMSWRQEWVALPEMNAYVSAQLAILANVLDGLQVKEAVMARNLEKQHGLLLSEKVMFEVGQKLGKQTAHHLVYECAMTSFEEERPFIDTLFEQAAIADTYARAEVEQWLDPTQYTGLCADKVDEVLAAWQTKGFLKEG

D. dadantii 2SL (Dd) = target: T2, D. dadantii 2SL (Dd) (Dickeya dadantii, UniProt E0SKP1); assay: HPLC, […] nm, 2SNAC synthesis; format: biochemical; details: 50 mM Tris-HCl pH 8.0, 21 °C, 4.0 mM NAC; synthesis direction; read-out: Kinetic parameter / Km
T2 construct: gene Dda3937_00284; full-length, N-terminal hexahistidine tag (pET28b), expressed in E. coli BL21-(DE3)-RIPL, Ni-NTA purified; tag removal not mentioned
T2 sequence (E0SKP1 1-454): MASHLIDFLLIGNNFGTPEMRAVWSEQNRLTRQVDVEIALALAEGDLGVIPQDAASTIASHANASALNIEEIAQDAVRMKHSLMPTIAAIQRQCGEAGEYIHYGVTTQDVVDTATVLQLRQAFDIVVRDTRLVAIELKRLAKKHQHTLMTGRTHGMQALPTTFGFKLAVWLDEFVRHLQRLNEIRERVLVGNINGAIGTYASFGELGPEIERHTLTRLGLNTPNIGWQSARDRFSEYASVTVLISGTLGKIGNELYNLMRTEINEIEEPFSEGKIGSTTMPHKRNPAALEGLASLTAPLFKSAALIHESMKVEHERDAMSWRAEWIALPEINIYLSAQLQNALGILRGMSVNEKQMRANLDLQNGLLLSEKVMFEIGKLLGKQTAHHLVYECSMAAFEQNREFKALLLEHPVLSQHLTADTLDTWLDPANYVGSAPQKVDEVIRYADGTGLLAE

purified protein [1] = substrate: CC(=O)N[C@@H](CS)C(=O)O; assay: purified protein; format: biochemical, Enterococcus italicus; details: 50 mM Tris-HCl pH 8.0, 21 °C, 30 mM fumarate, synthesis direction
purified protein [2] = substrate: N[C@@H](CSC(CC(=O)O)C(=O)O)C(=O)O; assay: purified protein; format: biochemical, Enterococcus italicus; details: 100 mM Tris-HCl pH 8.0, 21 °C, 40 mM glutamate, 2 mM NAD+, breakdown direction
purified protein [3] = substrate: CC(=O)N[C@@H](CSC(CC(=O)O)C(=O)O)C(=O)O; assay: purified protein; format: biochemical, Enterococcus italicus; details: 100 mM Tris-HCl pH 8.0, 21 °C, 40 mM glutamate, 2 mM NAD+, breakdown direction
purified protein [4] = substrate: N[C@@H](CS)C(=O)O; assay: purified protein; format: biochemical, Enterococcus italicus; details: 50 mM Tris-HCl pH 8.0, 21 °C, 30 mM fumarate, synthesis direction
purified protein [5] = substrate: CC(=O)N[C@@H](CS)C(=O)O; assay: purified protein; format: biochemical, Dickeya dadantii; details: 50 mM Tris-HCl pH 8.0, 21 °C, 30 mM fumarate, synthesis direction
purified protein [6] = substrate: N[C@@H](CSC(CC(=O)O)C(=O)O)C(=O)O; assay: purified protein; format: biochemical, Dickeya dadantii; details: 100 mM Tris-HCl pH 8.0, 21 °C, 40 mM glutamate, 2 mM NAD+, breakdown direction
purified protein [7] = substrate: CC(=O)N[C@@H](CSC(CC(=O)O)C(=O)O)C(=O)O; assay: purified protein; format: biochemical, Dickeya dadantii; details: 100 mM Tris-HCl pH 8.0, 21 °C, 40 mM glutamate, 2 mM NAD+, breakdown direction
purified protein [8] = substrate: N[C@@H](CS)C(=O)O; assay: purified protein; format: biochemical, Dickeya dadantii; details: 50 mM Tris-HCl pH 8.0, 21 °C, 30 mM fumarate, synthesis direction

**Q.** With O=C(O)/C=C/C(=O)O [fumarate] as the molecule, how does the Km (E. italicus 2SL (Ei)) read?
**A.** 230 ± 20 µM

**Q.** And the Km (D. dadantii 2SL (Dd))?
**A.** 3240 ± 300 µM

B1: E. italicus 2SL (Ei) (Enterococcus italicus DSM 15952) (protein)
chain: MGSHVIDLVMLRNNFSTAEMRAIWNDEARITKQLAVEAALAQAEGELGLIPKEAAKKIAKVAKETTFDIAAIAEQVAVLKHSLMPTINALQAAAGDEGEFVHYGATTQDIVDTGTVLQLKDAYNIVLRDTQVVFEKLAKLAKHYQNVPMVGRTHGMQALPITFGYKLAIWVDEFGRHLERLHEIKERVFTGNINGAVGSYASFGPKGSEVERQTLAILDLNAPTIGWQSSRDRFSEYASVIGLISATLGKIGNEFYNLMRTEINEIEEPFSKGKIGSSTMPHKRNPAAFEGLASLTPPVLKSVALIHESMHVEHERDAMSWRQEWVALPEMNAYVSAQLAILANVLDGLQVKEAVMARNLEKQHGLLLSEKVMFEVGQKLGKQTAHHLVYECAMTSFEEERPFIDTLFEQAAIADTYARAEVEQWLDPTQYTGLCADKVDEVLAAWQTKGFLKEG
notes: full-length, N-terminal hexahistidine tag (pET28b), expressed in E. coli BL21-(DE3)-RIPL, Ni-NTA purified; tag removal not mentioned
**Q.** B1 was tested. Which Km (purified protein [1]) did it give?
**A.** 390 ± 30 µM

**Q.** What about the Vmax (purified protein [1]) of the same molecule?
**A.** 105 µmol/min/mg

**Q.** What about the kcat (purified protein [1]) of the same molecule?
**A.** 92.1 ± 7.1 s⁻¹

**Q.** And the kcat/Km (purified protein [1])?
**A.** 236000 M⁻¹ s⁻¹

**Q.** And the Km (purified protein [2])?
**A.** 10700 ± 2300 µM

**Q.** And the Vmax (purified protein [2])?
**A.** 0.058 µmol/min/mg

**Q.** And the kcat (purified protein [2])?
**A.** 0.051 ± 0.004 s⁻¹

**Q.** What about the kcat/Km (purified protein [2]) of the same molecule?
**A.** 4.7 M⁻¹ s⁻¹

**Q.** What about the Km (purified protein [3]) of the same molecule?
**A.** 1400 ± 100 µM

**Q.** What about the Vmax (purified protein [3]) of the same molecule?
**A.** 2.42 µmol/min/mg

**Q.** And the kcat (purified protein [3])?
**A.** 2.12 ± 0.21 s⁻¹

**Q.** And the kcat/Km (purified protein [3])?
**A.** 1510 M⁻¹ s⁻¹

**Q.** What about the Km (purified protein [4]) of the same molecule?
**A.** 17800 ± 3600 µM

**Q.** And the Vmax (purified protein [4])?
**A.** 11.9 µmol/min/mg

**Q.** And the kcat (purified protein [4])?
**A.** 10.4 ± 1.5 s⁻¹

**Q.** What about the kcat/Km (purified protein [4]) of the same molecule?
**A.** 580 M⁻¹ s⁻¹

B2: D. dadantii 2SL (Dd) (Dickeya dadantii 3937) (protein)
chain: MASHLIDFLLIGNNFGTPEMRAVWSEQNRLTRQVDVEIALALAEGDLGVIPQDAASTIASHANASALNIEEIAQDAVRMKHSLMPTIAAIQRQCGEAGEYIHYGVTTQDVVDTATVLQLRQAFDIVVRDTRLVAIELKRLAKKHQHTLMTGRTHGMQALPTTFGFKLAVWLDEFVRHLQRLNEIRERVLVGNINGAIGTYASFGELGPEIERHTLTRLGLNTPNIGWQSARDRFSEYASVTVLISGTLGKIGNELYNLMRTEINEIEEPFSEGKIGSTTMPHKRNPAALEGLASLTAPLFKSAALIHESMKVEHERDAMSWRAEWIALPEINIYLSAQLQNALGILRGMSVNEKQMRANLDLQNGLLLSEKVMFEIGKLLGKQTAHHLVYECSMAAFEQNREFKALLLEHPVLSQHLTADTLDTWLDPANYVGSAPQKVDEVIRYADGTGLLAE
notes: as for B1
**Q.** For B2, which Km (purified protein [5]) is on record?
**A.** 690 ± 50 µM

**Q.** What about the Vmax (purified protein [5]) of the same molecule?
**A.** 27.6 µmol/min/mg

**Q.** What about the kcat (purified protein [5]) of the same molecule?
**A.** 24.2 ± 3.7 s⁻¹

**Q.** And the kcat/Km (purified protein [5])?
**A.** 35000 M⁻¹ s⁻¹

**Q.** What about the Km (purified protein [6]) of the same molecule?
**A.** 12300 ± 1100 µM

**Q.** What about the Vmax (purified protein [6]) of the same molecule?
**A.** 0.069 µmol/min/mg

**Q.** What about the kcat (purified protein [6]) of the same molecule?
**A.** 0.06 ± 0.004 s⁻¹

**Q.** And the kcat/Km (purified protein [6])?
**A.** 4.9 M⁻¹ s⁻¹

**Q.** And the Km (purified protein [7])?
**A.** 1200 ± 220 µM

**Q.** What about the Vmax (purified protein [7]) of the same molecule?
**A.** 0.4 µmol/min/mg

**Q.** What about the kcat (purified protein [7]) of the same molecule?
**A.** 0.35 ± 0.05 s⁻¹

**Q.** And the kcat/Km (purified protein [7])?
**A.** 290 M⁻¹ s⁻¹

**Q.** What about the Km (purified protein [8]) of the same molecule?
**A.** 19000 ± 1900 µM

**Q.** And the Vmax (purified protein [8])?
**A.** 11.1 µmol/min/mg

**Q.** What about the kcat (purified protein [8]) of the same molecule?
**A.** 9.7 ± 0.4 s⁻¹

**Q.** What about the kcat/Km (purified protein [8]) of the same molecule?
**A.** 510 M⁻¹ s⁻¹
